Patent publication US20210341448A1, “SCREENING METHOD FOR THERAPEUTIC DRUG OR PROPHYLACTIC DRUG FOR TAUOPATHY AND DIAGNOSTIC METHOD FOR TAUOPATHY” (National Center for Geriatrics and Gerontology, priority 2018, published 2021)

Experiments:
[1] = system: brain slice specimen (hippocampus/entorhinal cortex complex); experiment: Measurement of synapse transmission efficiency (fiber-volley/fEPSP) in brain slice specimens; details: aging mouse brain slice exposed to 10 μg/ml for 2 to 3 hours, vs aCSF negative control; p<0.0001
Method: Brain slice specimens from mice were prepared by the following procedure to evaluate impacts by the tau oligomer on synapse transmission efficiency. 20- to 23-month-old C57BL/6 mice (C57BL/6J or C57BL/6N, male) were cervically dislocated and decapitated to isolate the brain. The obtained brain was thoroughly cooled in aCSF (124 mM of NaCl, 3 mM of KCl, 26 mM of NaHCO3, 1.25 mM of NaH2PO4, 2 mM of CaCl2, 1 mM of MgSO4, 10 mM of D-glucose) bubbled with a 95% O2/5% CO2 mixed gas, then dissected at the center of the cerebrum along the coronal plane, and further the dissected posterior site of the brain was sliced along the horizontal cross sections to a thickness of 350 μm using a vibratome (Leica, VT-1200S). […]
The brain slice specimen was moved to a measurement chamber through which aCSF was perfused, and electric pulse stimulation of 1.5, 2, 3, or 4 nA was applied to record induced potential changes for the measurement of synapse strength from […]. […] The recorded waveform was analyzed using a self-made analysis software to calculate an amplitude of fiber-volley and an amplitude of excitatory postsynaptic potential (fEPSP) at each electric pulse stimulation.

[2] = biological target: T1, NMDAR (Homo sapiens, UniProt Q05586); experiment: Measurement of calcium influx through NMDAR into NT2-N cells; assay type: cell-based
T1 construct: endogenous in cells; host or cells: NT2-N neurons differentiated from NTERA-2 cl.D1 [NT2/D1] cells (ATCC CRL-1973)
Method: Cultured neurons expressing NMDARs retaining physiological functions were prepared by the following procedure to evaluate the NMDAR activation ability of the tau oligomer. The NTERA-2 cl.D1[NT2/D1] cells (ATCC CRL-1973) (hereinafter described as “NT2 cell”), which are derived from a human pluripotent embryonic cancer, were adhesively cultured on 10-cm plastic dish in maintenance culture medium (high glucose DMEM (Sigma-Aldrich, D6429), 10% FBS, 100 U/ml penicillin/streptomycin) under the conditions of 37° C. and 5% CO2 for 3 to 4 days until the confluency stage was attained. The NT2 cells were detached using Accutase (Innovative Cell Technologies, #AT104), were passaged, and were maintained over a period of 50 days. The medium was replaced 3 times a week.
The maintenance-cultured NT2 cells were dispersed in a low attachment petri dish (STAR SDish9015, RIKAKEN CO., LTD.) in a concentration of 1.5×10^6 to 2.5×10^6/dish, suspension-cultured under the conditions of 37° C. and 5% CO2 on a shaker (100 rpm), and 1 day later were induced to differentiate by adding 1 μM of all-trans-retinoic acid (abcam), to thereby form spheroids. 14 days later, the spheroids were collected, seeded in a 10-cm dish coated with 5 μg/ml of poly-D-lysin (PDL) (Sigma-Aldrich)/Laminin (LAM) (iMatrix-511, Nippi Inc.) and adhesively cultured under the conditions of 37° C. and 5% CO2. From the following day, the culture was carried out by adding 3 kinds of cell division inhibitors (10 μM of uridine, 10 μM of floxuridine, and 1 μM of AraC). […]
For analysis, 5 to 10 regions of the visual field of the NT2-N cells positioned in the system were manually set and the fluorescence intensities were recorded for each region, for Cal-520, every 1 minute for 1 hour continuously at excitation wavelength 480 nm/fluorescence emission wavelength 520 nm, and for Fluo-8, every 2 seconds for 5 minutes continuously at excitation wavelength 480 nm/fluorescence emission wavelength 520 nm. […]

## tau oligomer: polymer of human tau 2N4R monomers, polymerized with mouse brain extract and ATP, collected as pellets
[1]
  synapse transmission efficiency (fiber-volley/fEPSP ratio): significantly reduced
[2]; Cal-520, NT2-N cells, 3 minutes after administration
  increase of intracellular calcium concentration (NMDAR activation ability): has the NMDAR activation ability
[2]; Fluo-8, NT2-N cells, 100 μl of 0.03 μg/ml in HHBS
  intracellular calcium concentration: increased over time
